Test results from patent publication US20170342155A1 (Amgen, published 2017).

T1: human CCR7 variant T297S (20110018203) (human, UniProt P32248 25-378)
T1 sequence: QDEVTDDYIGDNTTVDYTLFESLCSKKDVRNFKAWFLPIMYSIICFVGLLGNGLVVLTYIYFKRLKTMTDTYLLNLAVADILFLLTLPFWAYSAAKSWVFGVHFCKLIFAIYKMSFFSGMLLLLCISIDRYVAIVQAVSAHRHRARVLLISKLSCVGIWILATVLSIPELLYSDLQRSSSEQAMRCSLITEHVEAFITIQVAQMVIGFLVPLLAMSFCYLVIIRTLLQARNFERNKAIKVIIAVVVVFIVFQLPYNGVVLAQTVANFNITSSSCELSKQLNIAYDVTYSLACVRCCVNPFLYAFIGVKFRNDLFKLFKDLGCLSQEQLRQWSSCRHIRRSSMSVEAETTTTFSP

T2: human CCR7 variant R201K (20100171268) (human, UniProt P32248 25-378)
T2 sequence: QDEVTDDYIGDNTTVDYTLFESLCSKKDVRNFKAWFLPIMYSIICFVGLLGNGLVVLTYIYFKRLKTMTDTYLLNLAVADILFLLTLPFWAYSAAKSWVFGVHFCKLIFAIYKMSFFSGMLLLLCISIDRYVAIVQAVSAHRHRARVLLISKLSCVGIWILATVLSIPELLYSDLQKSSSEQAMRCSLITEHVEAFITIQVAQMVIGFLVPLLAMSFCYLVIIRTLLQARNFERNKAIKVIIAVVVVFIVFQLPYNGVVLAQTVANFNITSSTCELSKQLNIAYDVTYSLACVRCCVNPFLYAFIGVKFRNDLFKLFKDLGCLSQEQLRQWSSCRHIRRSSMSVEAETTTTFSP

T3: human CCR7 variant S204G (20100171269) (human, UniProt P32248 25-378)
T3 sequence: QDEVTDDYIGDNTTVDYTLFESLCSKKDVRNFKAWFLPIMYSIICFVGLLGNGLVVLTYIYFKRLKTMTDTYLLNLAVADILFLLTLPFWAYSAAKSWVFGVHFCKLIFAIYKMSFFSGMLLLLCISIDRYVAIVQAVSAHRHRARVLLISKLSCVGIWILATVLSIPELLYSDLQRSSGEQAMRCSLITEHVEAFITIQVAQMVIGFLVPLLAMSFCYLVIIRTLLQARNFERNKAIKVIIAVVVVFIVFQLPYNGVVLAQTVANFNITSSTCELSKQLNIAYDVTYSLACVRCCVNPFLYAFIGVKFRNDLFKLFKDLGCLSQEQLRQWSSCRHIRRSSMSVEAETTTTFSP

T4: murine CCR7 K201R/N202S/G204S/T207A/L208M construct 20110094673 (mouse, UniProt P47774 25-378)
T4 construct: Murine CCR7 with five human ECL2 residues; also called KNGTL; KNGTL construct
T4 chain: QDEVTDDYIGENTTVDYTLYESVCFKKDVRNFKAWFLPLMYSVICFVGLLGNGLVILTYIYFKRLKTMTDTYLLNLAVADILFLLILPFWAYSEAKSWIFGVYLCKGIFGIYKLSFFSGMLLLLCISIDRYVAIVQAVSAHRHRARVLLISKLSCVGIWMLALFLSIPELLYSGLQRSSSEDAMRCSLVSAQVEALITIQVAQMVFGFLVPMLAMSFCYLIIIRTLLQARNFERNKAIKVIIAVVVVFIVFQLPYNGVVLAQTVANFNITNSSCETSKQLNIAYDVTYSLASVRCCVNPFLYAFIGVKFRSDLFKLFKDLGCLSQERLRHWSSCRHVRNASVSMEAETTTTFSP

T5: wild-type murine CCR7 (pcDNA3.1 Neo-mouseCCR7, 20060298628) (mouse, UniProt P47774 25-378)
T5 construct: Full open reading frame as printed; Expressed on transfected 293T cells; also called mCCR7; wild-type murine CCR7 receptor
T5 sequence: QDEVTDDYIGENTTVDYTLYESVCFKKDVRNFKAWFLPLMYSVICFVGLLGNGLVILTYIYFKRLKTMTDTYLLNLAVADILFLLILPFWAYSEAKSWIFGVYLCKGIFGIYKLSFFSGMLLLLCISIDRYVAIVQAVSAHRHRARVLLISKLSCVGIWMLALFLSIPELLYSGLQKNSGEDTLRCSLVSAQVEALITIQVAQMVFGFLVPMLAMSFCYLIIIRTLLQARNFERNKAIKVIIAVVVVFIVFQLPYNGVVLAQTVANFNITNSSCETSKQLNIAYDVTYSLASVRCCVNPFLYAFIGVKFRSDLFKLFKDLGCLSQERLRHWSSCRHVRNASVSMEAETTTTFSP


Key:
[1] = target: T1, human CCR7 variant T297S (20110018203); assay: flow cytometry on transfected 293T cells, PE secondary antibody, geo mean
[2] = target: T2, human CCR7 variant R201K (20100171268); assay: as above
[3] = target: T3, human CCR7 variant S204G (20100171269); assay: as above
[4] = target: T4, murine CCR7 …; assay: as above
[5] = target: T5, wild-type murine CCR7 (pcDNA3.1 …); assay: flow cytometry on transfected 293T cells
Experimental: 293T cells were transfected with each of the 22 constructs using Fugene HD Transfection Reagent (Cat #: 04709705001) (Roche Applied Sciences, Indianapolis, Ind.) according to manufacturer's protocol. DNA to Fugene HD ratio used was 1:3. […] After 48 hours, transfected cells were harvested and washed with PBS+5% FBS two times. Cells were counted using the Nexcelom Cell Counter (Nexcelom Bioscience, Lawrence, Mass.), and 250,000 cells per well were plated in a 96 well round bottom plate. Cells transfected with each construct were stained in duplicate as follows: unstained control, 6B4.1 primary Ab followed by Goat anti-human-PE secondary Ab, 6B5.1 primary Ab followed by Goat anti-human-PE secondary Ab, mAb197 primary Ab followed by Goat anti-mouse-PE secondary Ab, and the controls of secondary Ab Goat anti-mouse-PE only and Goat anti-human-PE only. The cells were visualized by flow cytometry and geo means were generated and analyzed.

Row | binding result [1] | binding result [2] | binding result [3] | binding result [4] | binding result [5] | Binder
1 | binds | binds | binds | binds | no binding | antibody 6B4.1 (antibody, V domains shown, Human antibody from XenoMouse hybridoma; Light = 2 and heavy = 42 is inferred from the order of the listing (light chains first)) VH: QVQLVESGGGVVQPGRSLRLSCAASGFTFSSYGMHWVRQAPGKGLEWVAVIWYDGSKKYYADSVKGRFTISRDNSKNTLYLQMNRLRAEDTAVYYCARDGGIAVFLQDNWFDPWGQGTLVTVSS VL: SYELTQPPSVSVSPGQRARITCSGDKLGDKYASWYQQKPGQSPLLVIYQDSKRPSGIPERFSGSNSGNTATLTISGTQAMDEADYYCQAWGSSTVIFGGGTKLTVLG
2 | binds | binds | binds | binds | no binding | antibody 6B5.1 (antibody, human IgG2, lambda, V domains shown, Human antibody from XenoMouse hybridoma; Light = 18 and heavy = 50 is inferred from the order of the listing) VH: QVQLVESGGGVVQPGRSLRLSCAASGFTFRSYGMHWVRQAPGKGLEWVAVIWYDGSKKYYADSVKGRFTISRDNSKNTLYLQMNRLRAEDTAVYYCARDGGIAVFLEDNWFDPWGQGTLVTVSS VL: SYELTQPPSVSVSPGQRASITCSGDKLGDKYASWYQQKPGQSPLLVIYQDGKRPSGIPERFSGSNSGNTATLTISGTQAMDEADYYCQAWGSSTVIFGGGTKLTVLG
